Patent publication US20160229920A1 (University of Texas, published 2016)

How the values were obtained:
[1] = target: T1, HER3 on the plasma membrane of SK-BR-3 and BT-474 breast cancer cells (human, UniProt P21860 20-1342); experiment: fluorescence microscopy of SK-BR-3 cells treated with 50 nM antibody for 15 min at 37 C and chased 45 min; detection with Alexa 555 anti-human IgG, co-stain LAMP-1; the cells carry HER2 and HER3 and the staining of the bispecific is not separated between the two
T1 construct: whole, on cells; also called cell surface HER3
Method: Cells were fixed, permeabilized and stained for LAMP-1. […] Scale bars=2 μm.
For fixation, cells were treated with 1.7% (w/v) paraformaldehyde for 10 minutes at 37° C. and then permeabilized with 0.05% (v/v) saponin for 10 minutes at room temperature in PBS. […] Cells were washed twice with PBS between each incubation step and were stored at 4° C. in 1% BSA/PBS.

[2] = target: T1, HER3 on the plasma membrane of SK-BR-3 …; experiment: fluorescence microscopy of SK-BR-3 cells pulsed with 50 nM antibody for 5 min at 37 C and chased 0, 10 or 20 min; detection with Alexa 555 anti-human IgG, co-stain EEA-1 [Continued]

binding result [1]	binding result [2]	Binder
binds		bispecific trastuzumab with anti-HER3 Ab6 scFv (TAb6) (bispecific antibody, Morrison format, expressed in CHO cells; also called bispecific anti-HER2/HER3 antibody) heavy: not shown light: DIELTQSPSSLSASVGDRVTITCRASQDVNTAVAWYQQKPGKAPKLLIYSASFLYSGVPSRFSGSRSGTDFTLTISSLQPEDFATYYCQQHYTTPPTFGQGTKLEIKRTVAAPSVFIFPPSDEQLKSGTASVVCLLNNFYPREAKVQWKVDNALQSGNSQESVTEQDSKDSTYSLSSTLTLSKADYEKHKVYACEVTHQGLSSPVTKSFNRGEC
	binds	tetrameric anti-HER3 (Ab6tet) (antibody, Residues 1-19 are the leader; also called tetravalent anti-HER3 antibody; multivalent anti-HER3 antibody) heavy: not shown light: DIELTQPASVSGSPGQSITISCTGTSSDVGSYNVVSWYQQHPGKAPKLIIYEVSQRPSGVSNRFSGSKSGNTASLTISGLQTEDEADYYCCSYAGSSIFVIFGGGTKLEIKRTVAAPSVFIFPPSDEQLKSGTASVVCLLNNFYPREAKVQWKVDNALQSGNSQESVTEQDSKDSTYSLSSTLTLSKADYEKHKVYACEVTHQGLSSPVTKSFNRGEC
